Target: T1, 37/67 laminin receptor (LR) (Homo sapiens (Human), UniProt P08865 2-295)
T1 construct: also called LRP
Assay: adhesion of construct-labeled latex microspheres to fixed TNF-activated RBCEC6 cells

| Binder | bead adherence to RBCEC6 cells, % (compared with full length CbpA-NR12 beads) | binding result |
| --- | --- | --- |
| CbpA-R2 (other) PEKKVAEAEKKVEEAKKKAEDQKEEDRRNYPTNTYKTLELEIAESDVEVKKAELELVKEEAKEPRNEEKVKQAKAEVESKKAEATRLEKIKTDRKKAEEEAKRKAAEEDKVKEKP | 6% | no binding |
| CbpA-R12 (construct containing domain 1 and domain 2) (other, On latex microspheres) EPGEKVAEAKKKVEEAEKKAKDQKEEDRRNYPTITYKTLELEIAESDVEVKKAELELVKVKANEPRDEQKIKQAEAEVESKQAEATRLKKIKTDREEAEEEAKRRADAKEQGKPKGRAKRGVPGELATPDKKENDAKSSDSSVGEETLPSPSLKPEKKVAEAEKKVEEAKKKAEDQKEEDRRNYPTNTYKTLELEIAESDVEVKKAELELVKEEAKEPRNEEKVKQAKAEVESKKAEATRLEKIKTDRKKAEEEAKRKAAEEDKVKEK | 226% | – |
| CbpA-N (domain N) (other, On latex microspheres) ENEGATQVPTSSNRANESQAEQGEQPKKLDSERDKARKEVEEYVKKIVGESYAKSTKKRHTITVALVNELNNIKNEYLNKIVESTSESQLQILMMESRSKVDEAVSKFEKDSSSSSSSDSSTKPEASDTAKPNKPT | 23% | no binding |

From patent publication US20140248303A1 (ST JUDE CHILDREN S RESEARCH HOSPITAL, published 2014)
